Laboratory results from PMC4872150.

Target: nucleolin (UniProt P19338)
Assay: SPR
Conditions: BIAcore 3000, nucleolin on CM5 chip, 10 mM HEPES, 150 mM NaCl, 3 mM EDTA, 0.005% surfactant P20, pH 7.4, 25 °C

UniProt P19338, sequence (P19338 whole entry): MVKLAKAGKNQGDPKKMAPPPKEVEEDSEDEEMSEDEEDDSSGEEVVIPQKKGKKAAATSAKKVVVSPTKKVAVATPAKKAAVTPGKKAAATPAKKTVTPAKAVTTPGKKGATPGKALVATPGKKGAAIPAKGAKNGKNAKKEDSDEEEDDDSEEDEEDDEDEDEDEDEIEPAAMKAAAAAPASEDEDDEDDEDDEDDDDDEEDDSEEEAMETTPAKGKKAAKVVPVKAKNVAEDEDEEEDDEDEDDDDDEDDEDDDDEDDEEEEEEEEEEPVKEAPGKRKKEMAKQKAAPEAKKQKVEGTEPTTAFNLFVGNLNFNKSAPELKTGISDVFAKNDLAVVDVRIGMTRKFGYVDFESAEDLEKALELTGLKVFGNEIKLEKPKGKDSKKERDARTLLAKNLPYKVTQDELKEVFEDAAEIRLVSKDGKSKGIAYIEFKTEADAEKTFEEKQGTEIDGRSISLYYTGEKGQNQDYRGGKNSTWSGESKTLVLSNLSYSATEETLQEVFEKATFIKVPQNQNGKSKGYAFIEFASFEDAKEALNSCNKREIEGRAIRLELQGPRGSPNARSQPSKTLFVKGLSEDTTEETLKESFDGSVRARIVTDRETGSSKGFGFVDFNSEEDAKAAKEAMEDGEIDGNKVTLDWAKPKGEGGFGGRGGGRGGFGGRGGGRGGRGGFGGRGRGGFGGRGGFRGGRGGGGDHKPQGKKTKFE

GGTGGTGGTGGTTGTGGTGGTGGTGG [AS1411]
Kd: 169 nM

GGTGGTGGTGGNTGTGGTGGTGGNGG [FAN-1224dI]
Kd (N = 2'-deoxyinosine at positions 12 and 24 (replacing T)): 32.2 nM

GGTGGTGGTGGTNGTGGTGGTGGNGG [FAN-1324dI]
Kd (N = 2'-deoxyinosine at positions 13 and 24 (replacing T)): 30.9 nM

GGTGGTGGTGGTTGNGGTGGTGGNGG [FAN-1524dI]
Kd (N = 2'-deoxyinosine at positions 15 and 24 (replacing T)): 37 nM
